According to patent US20090275124A1 (DYAX, published 2009):

Columns and labels:
DX-2400 [1] = molecular target: T1, DX-2400; assay: phage display selection and ELISA screening
T1 construct: Only the variable domains are printed (joined from rows r3-r12 and r17-r26); It was biotinylated for phage selection; also called DX-2400 IgG; fully human monoclonal anti-MMP-14 antibody
Source text: Anti-idiotypic Fabs for DX-2400 were generated by phage selection and screenings using DX-2400 as a target. […] Forty nine were distinct as determined by DNA sequencing. These 49 unique clones were screened as phages and sFabs (soluble Fabs) in 5% pooled normal serum matrices (human, mouse, rat and cynomolgus monkey). Top 10 unique clones were ranked according to the following criteria: strong binding to DX-2400, weak binding to DX-2300, low-non specific binding to streptavidin and Fab control.

DX-2400 [2] = molecular target: T1, DX-2400; assay: phage ELISA
Source text: Three rounds of selection were done against biotinylated DX-2400 after depleting the library using biotinylated-DX-2300 IgG (control antibody that binds unrelated target) and biotinylated matched Vk Fab (371L-X002-A03) (isotype matched control) immobilized on streptavidin magnetic beads. […] Forty-nine unique phage clones which had distinct heavy chains were secondarily screened by phage ELISA and ranked for specific binding to DX-2400. Later 45 soluble Fabs were expressed, purified and screened for non-specific binding to 5% human, cyno, rat, and mouse serum antibodies by using Fab as capture reagent and detecting with alkaline phosphatase-conjugated mouse anti-human Fc gamma-specific antibody.

Binder | binding result (DX-2400 [1]) | binding result (DX-2400 [2])
539C-M0021-E01 (Fab, V domains shown, It was tested as Fab on phage and as soluble Fab) VH: EVQLLESGGGLVQPGGSLRLSCAASGFTFSVYPMIWVRQAPGKGLEWVSYISSSGGQTWYADSVKGRFTISRDNSKNTLYLQMNSLRAEDTATYYCARGDDYDSSGPDYWGQGTLVTVSS VL: DIQMTQSPSSLSASEGDRITLTCRASQSISIYLNWYQQKPGRAPKLLMYAATTLQSGVPSRFSGSGSGTDFTLTISGLRPEDFATYYCQQSYDIPLTFGGGTKVEIKR | binds | –
539C-M0016-E11 (Fab, V domains shown, It was tested as Fab on phage, as soluble Fab, and biotinylated in the ECL assay) VH: EVQLLESGGGLVQPGGSLRLSCAASGFTFSFYVMDWVRQAPGKGLEWVSGIGPSGGSTDYADSVKGRFTISRDNSKNTLYLQMNSLRAEDTAVYYCTRIRYDSSGYPTDAFDIWGQGTMVTVSS VL: DIQMTQSPATLSLSPGERATLSCRASQSVSSYLAWYQQKPGQAPRLLIYDASNRATGIPARFSGSGSGTDFTLTISSLEPEDFAVYYCQQRSNWPLTFGGGTKVEIKR | – | binds
539C-R0010-D06 (Fab, V domains shown, A Fab from the phage display library with a lambda light chain; Only the starts of the constant regions are printed (GQPKAAP)) VH: EVQLLESGGGLVQPGGSLRLSCAASGFTFSDYSMYWVRQAPGKGLEWVSYISSSGGNTEYADSVKGRFTISRDNSKNTLYLQMNSLRAEDTAMYYCATTPSIWLGDLLENGPYWGQGTLVTVSS VL: QYELTQPHSVSESPGKTVTISCTRSNGTIDNSFVQWYQQRPGSAPTTVIYEDTQRPSGVPDRFSGSIDSSSNSASLTISGLKTEDEADYYCQSYDSTNRGVFGGGTKLTVL | binds | –
539C-R0010-F05 (Fab, V domains shown, A Fab from the phage display library with a lambda light chain; Only the starts of the constant regions are printed) VH: EVQLLESGGGLVQPGGSLRLSCAASGFTFSWYAMVWVRQAPGKGLEWVSGISPSGGLTSYADSVKGRFTISRDNSKNTLYLQMNSLRAEDTAVYYCARKQMSPDYYYGMDVWGQGTTVTVSS VL: QSVLTQPPSVSVAPGQTATISCEGDNIGSKSVHWYQQRPGQAPVLVVYDDYDRPSGIPERFSGFNSGNTATLTIYRVEAGDEADFYCQVRDSRTEERVFGGGTKLTVL | binds | –
539C-R0010-C05 (Fab, V domains shown, A Fab from the phage display library with a kappa light chain; Only the starts of the constant regions are printed) VH: EVQLLESGGGLVQPGGSLRLSCAASGFTFSGYGMGWVRQAPGKGLEWVSYIVPSGGATDYADSVKGRFTISRDNSKNTLYLQMNSLRAEDTAVYYCARAYYYDSSGFDIWGQGTMVTVSS VL: DIQMTQSPSSLSASVGDRVTITCLPSQDISVYLNWYQQKPGEAPKLLISATSDLQSGVPSRFGGSGYGTDFSLTITSLQREDFATYYCQQSYSLPFTFGGGTRVEIK | binds | –
539C-R0010-B06 (Fab, V domains shown, A Fab from the phage display library with a kappa light chain; Only the starts of the constant regions are printed (RTVAAPS)) VH: EVQLLESGGGLVQPGGSLRLSCAASGFTFSEYQMNWVRQAPGKGLEWVSSIYSSGGGTAYADSVKGRFTISRDNSKNTLYLQMNSLRAEDTAVYYCAKDQGDGYNYGVGLDYWGQGTLVTVSS VL: not shown | binds | –
539C-R0010-C06 (Fab, V domains shown, A Fab from the phage display library with a kappa light chain; Only the starts of the constant regions are printed) VH: EVQLLESGGGLVQPGGSLRLSCAASGFTFSSYNMAWVRQAPGKGLEWVSVIVPSGGLTGYADSVKGRFTISRDNSKNTLYLQMNSLRAEDTAVYYCARERGGFYSSGWYRYWFDPWGQGTLVTVSS VL: DIQMTQSPSSLSASVGDRVTITCRASQNINTFLNWYQQKPGKAPKLLIYGASSLQSGVPSRFSGSGSGTDFTLTISSLQPEDFATYYCQQSSDALVYNFGQGTKLEIK | binds | –
539C-R0010-F06 (Fab, V domains shown, A Fab from the phage display library with a kappa light chain; Only the starts of the constant regions are printed) VH: EVQLLESGGGLVQPGGSLRLSCAASGFTFSDYHMSWVRQAPGKGLEWVSGISSSGGETFYADSVKGRFTISRDNSKNTLYLQMNSLRAEDTAVYYCASGSHRDGYNLGYFDYWGQGTLVTVSS VL: DIQMTQSPASLSASVGDRVTITCQASRDIGEYLNWYQQKAGKPPKLLISDATTLETGVPSRFSGTGSGTEFLFTISSVEPEDFATYYCQQYDDLTWISFGPGTRLDVK | binds | –
539C-R0004-G04 (Fab, V domains shown, A Fab from the phage display library with a lambda light chain; Only the starts of the constant regions are printed; The VL is built from the FR/CDR columns because the joined LV-AA print (r109-r111) reads ADYEC where LV-FR3 reads ADYFC) VH: EVQLLESGGGLVQPGGSLRLSCAASGFTFSDYDMHWVRQAPGKGLEWVSGISPSGGWTWYADSVKGRFTISRDNSKNTLYLQMNSLRAEDTAVYYCARDWYSSGLDYWGQGTLVTVSS VL: QYELTQPPSVSVAPGQTARIICGGNDIGSKGVHWYHQKAGQAPVLLVYDNTDRPSGIPERFSGSNSGNTAALTITRVEAGDEADYFCQVWDSTGEHAVFGGGTKLTVL | binds | –
539C-R0010-E06 (Fab, V domains shown, A Fab from the phage display library with a lambda light chain; Only the starts of the constant regions are printed) VH: EVQLLESGGGLVQPGGSLRLSCAASGFTFSDYWMFWVRQAPGKGLEWVSGIGPSGGIISYADSVKGRFTISRDNSKNTLYLQMNSLRAEDTAVYYCAKYGDYVSGFDYWGQGTLVTVSS VL: QSALTQPASVSGSPGQSITISCTGTSSDVGGYKLVSWYQQHPGKVPKLIISEVSYRPSGVSNRFSGSKSGNAASLTISGLQAEDEADYYCSSYTSTSTWVFGGGTKLTVL | binds | –
